{"source": "the supplement of paper PMC9112550", "about": "“Optimization of the antimicrobial peptide Bac7 by deep mutational scanning” (BMC Biology, 2022);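 also: peptides expressed intracellularly from a pBAD plasmid library in pooled LB shake-flask culture, induced with 0.3% L-arabinose, DNA abundance read by NGS, three biological replicates, DESeq2 with apeglm shrinkage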", "data": [{"test_system": "Escherichia coli TOP10", "experiment": "shrunken log2 fold change of peptide-encoding DNA abundance (4.5 h post-induction vs induction); higher = less antimicrobial activity (less host growth inhibition)", "conditions": "time post-induction: 4.5 h; library: site-saturation at positions 5, 18, 19, 20", "values": [{"sequence": "RRIRFRPPRLPRPRPRPHTNPRP", "shrunken log2 fold change": -0.453}, {"sequence": "RRIRCRPPRLPRPRPRPGTIPRP", "shrunken log2 fold change": 0.00164}, {"sequence": "RRIRNRPPRLPRPRPRPDLMPRP", "shrunken log2 fold change": 3.21}, {"sequence": "RRIRIRPPRLPRPRPRPDLMPRP", "shrunken log2 fold change": -0.396}, {"sequence": "RRIRVRPPRLPRPRPRPPSNPRP", "shrunken log2 fold change": -0.034}, {"sequence": "RRIRGRPPRLPRPRPRPWNCPRP", "shrunken log2 fold change": -0.101}, {"sequence": "RRIRQRPPRLPRPRPRPAHGPRP", "shrunken log2 fold change": 0.19}, {"sequence": "RRIRWRPPRLPRPRPRPYCRPRP", "shrunken log2 fold change": -0.295}, {"sequence": "RRIRFRPPRLPRPRPRPLFMPRP", "shrunken log2 fold change": -0.36}, {"sequence": "RRIRARPPRLPRPRPRPHLFPRP", "shrunken log2 fold change": 0.117}, {"sequence": "RRIRNRPPRLPRPRPRPRDQPRP", "shrunken log2 fold change": -0.0345}, {"sequence": "RRIRSRPPRLPRPRPRPMKHPRP", "shrunken log2 fold change": -0.212}, {"sequence": "RRIRFRPPRLPRPRPRPIAEPRP", "shrunken log2 fold change": 0.2}, {"sequence": "RRIRRRPPRLPRPRPRPELIPRP", "shrunken log2 fold change": 0.0314}, {"sequence": "RRIRSRPPRLPRPRPRPAWQPRP", "shrunken log2 fold change": 0.0367}, {"sequence": "RRIRSRPPRLPRPRPRPQTGPRP", "shrunken log2 fold change": 0.0318}, {"sequence": "RRIRNRPPRLPRPRPRPLHWPRP", "shrunken log2 fold change": -0.273}, {"sequence": "RRIRIRPPRLPRPRPRPIIQPRP", "shrunken log2 fold change": -0.455}, {"sequence": "RRIRDRPPRLPRPRPRPRHNPRP", "shrunken log2 fold change": -0.548}, {"sequence": "RRIRVRPPRLPRPRPRPGEEPRP", "shrunken log2 fold change": 0.00621}, {"sequence": "RRIRHRPPRLPRPRPRPLYYPRP", "shrunken log2 fold change": -0.611}, {"sequence": "RRIRERPPRLPRPRPRPWYLPRP", "shrunken log2 fold change": 0.0355}, {"sequence": "RRIRDRPPRLPRPRPRPADDPRP", "shrunken log2 fold change": 0.637}, {"sequence": "RRIRYRPPRLPRPRPRPSLCPRP", "shrunken log2 fold change": -0.109}, {"sequence": "RRIRSRPPRLPRPRPRPFVGPRP", "shrunken log2 fold change": -0.222}, {"sequence": "RRIRVRPPRLPRPRPRPNDLPRP", "shrunken log2 fold change": -0.31}, {"sequence": "RRIRVRPPRLPRPRPRPMPPPRP", "shrunken log2 fold change": 0.44}, {"sequence": "RRIRERPPRLPRPRPRPCCHPRP", "shrunken log2 fold change": -0.603}, {"sequence": "RRIRTRPPRLPRPRPRPECWPRP", "shrunken log2 fold change": 0.53}, {"sequence": "RRIRDRPPRLPRPRPRPEDQPRP", "shrunken log2 fold change": 0.0219}, {"sequence": "RRIRPRPPRLPRPRPRPERGPRP", "shrunken log2 fold change": 0.575}, {"sequence": "RRIRFRPPRLPRPRPRPDPEPRP", "shrunken log2 fold change": -0.0327}, {"sequence": "RRIRGRPPRLPRPRPRPIWFPRP", "shrunken log2 fold change": 0.31}, {"sequence": "RRIRARPPRLPRPRPRPHFNPRP", "shrunken log2 fold change": 0.122}, {"sequence": "RRIRQRPPRLPRPRPRPLPLPRP", "shrunken log2 fold change": -0.287}, {"sequence": "RRIRHRPPRLPRPRPRPKCMPRP", "shrunken log2 fold change": -0.29}, {"sequence": "RRIRLRPPRLPRPRPRPHTTPRP", "shrunken log2 fold change": -0.368}, {"sequence": "RRIRPRPPRLPRPRPRPEMRPRP", "shrunken log2 fold change": 0.329}, {"sequence": "RRIRGRPPRLPRPRPRPLMSPRP", "shrunken log2 fold change": 0.271}, {"sequence": "RRIRHRPPRLPRPRPRPATCPRP", "shrunken log2 fold change": -0.196}, {"sequence": "RRIRPRPPRLPRPRPRPESMPRP", "shrunken log2 fold change": 0.142}, {"sequence": "RRIRPRPPRLPRPRPRPYHLPRP", "shrunken log2 fold change": -1.07}, {"sequence": "RRIRFRPPRLPRPRPRPNVAPRP", "shrunken log2 fold change": 0.365}, {"sequence": "RRIRDRPPRLPRPRPRPYMLPRP", "shrunken log2 fold change": -0.153}, {"sequence": "RRIRARPPRLPRPRPRPQWVPRP", "shrunken log2 fold change": 0.124}, {"sequence": "RRIRERPPRLPRPRPRPADKPRP", "shrunken log2 fold change": -0.187}, {"sequence": "RRIRERPPRLPRPRPRPTGKPRP", "shrunken log2 fold change": -0.0509}, {"sequence": "RRIRMRPPRLPRPRPRPNVWPRP", "shrunken log2 fold change": 0.303}, {"sequence": "RRIRVRPPRLPRPRPRPPVAPRP", "shrunken log2 fold change": 0.466}, {"sequence": "RRIRRRPPRLPRPRPRPNDWPRP", "shrunken log2 fold change": 0.24}, {"sequence": "RRIRFRPPRLPRPRPRPPGSPRP", "shrunken log2 fold change": 0.238}, {"sequence": "RRIRLRPPRLPRPRPRPFQSPRP", "shrunken log2 fold change": 0.0501}, {"sequence": "RRIRFRPPRLPRPRPRPSREPRP", "shrunken log2 fold change": 1.17}, {"sequence": "RRIRFRPPRLPRPRPRPPDWPRP", "shrunken log2 fold change": 0.701}, {"sequence": "RRIRMRPPRLPRPRPRPDDSPRP", "shrunken log2 fold change": 0.175}, {"sequence": "RRIRKRPPRLPRPRPRPFYSPRP", "shrunken log2 fold change": 0.00762}, {"sequence": "RRIRHRPPRLPRPRPRPGISPRP", "shrunken log2 fold change": -0.315}, {"sequence": "RRIRRRPPRLPRPRPRPYKNPRP", "shrunken log2 fold change": -0.47}, {"sequence": "RRIRMRPPRLPRPRPRPKSFPRP", "shrunken log2 fold change": -0.015}, {"sequence": "RRIRKRPPRLPRPRPRPLDKPRP", "shrunken log2 fold change": -0.0705}, {"sequence": "RRIRPRPPRLPRPRPRPWWRPRP", "shrunken log2 fold change": 0.14}, {"sequence": "RRIRWRPPRLPRPRPRPASVPRP", "shrunken log2 fold change": 0.00924}, {"sequence": "RRIRRRPPRLPRPRPRPYEMPRP", "shrunken log2 fold change": -0.0957}, {"sequence": "RRIRARPPRLPRPRPRPYLEPRP", "shrunken log2 fold change": 0.982}, {"sequence": "RRIRDRPPRLPRPRPRPFMWPRP", "shrunken log2 fold change": -0.102}, {"sequence": "RRIRERPPRLPRPRPRPKLPPRP", "shrunken log2 fold change": 0.0983}, {"sequence": "RRIRERPPRLPRPRPRPDWYPRP", "shrunken log2 fold change": -0.297}, {"sequence": "RRIRMRPPRLPRPRPRPVATPRP", "shrunken log2 fold change": 1.64}, {"sequence": "RRIRTRPPRLPRPRPRPWQDPRP", "shrunken log2 fold change": -0.326}, {"sequence": "RRIRMRPPRLPRPRPRPYFVPRP", "shrunken log2 fold change": 0.0021}, {"sequence": "RRIRFRPPRLPRPRPRPTHWPRP", "shrunken log2 fold change": 0.44}, {"sequence": "RRIRQRPPRLPRPRPRPRDLPRP", "shrunken log2 fold change": 0.412}, {"sequence": "RRIRMRPPRLPRPRPRPQTEPRP", "shrunken log2 fold change": 0.12}, {"sequence": "RRIRYRPPRLPRPRPRPSHQPRP", "shrunken log2 fold change": -0.594}, {"sequence": "RRIRIRPPRLPRPRPRPAVQPRP", "shrunken log2 fold change": -0.107}]}]}
